According to the DeepSol protein solubility set:

Test: soluble on expression in E. coli; label from the status in PepcDB or PDB records

Soluble on expression in E. coli, not soluble:
MQLRKKLHEAIVDGEEDDCPKRKIKKLDIQVDAATKVFSNQHILHDIIEYTVDGDKSILDNLRLRLVSRSFNNVVLSKVRAEFKMVQVCPYQQPEGADEKEEPEYDESNDIEDRSFMINDRRTWFSQVPRFFEFLNSVARIRVRDLLFSGFTSPDQRIHECILYSLLDGNWYSLNSYKGADELCNGCAVCSGNCFPLLAEIALHCVTMVGSREEAFSRLTKMITQDVNCDQLDLVFSDRCMWSKGTLAHPREVIDRIVKAWRVKSINIRFMTEYSSIDHEMWSNKRIFTEMRFDEMFVTDHNIIRPRHERDHFERVEVDMQAGDEIATCFAESMGMFEQSGMSATAFQNVCANVKRIFPTQDMYLILPTELAHVASVEFDGFCKALLEFAWKDERTARHSRLFFRLYTFGITEEQVLRQTENQFKINCRPVAAMLSDSSVRRSFLQWLPGSTSTFDRSLLSFTDVWNNCVLHLEVCIEADC
MSLEIERYIVPKETWPEIIIPVEVQEYIGERKELNLAEELLDRNIREGRGRKVAVYFEDRRVTYRDLYRLSNKIANFLVGIGVQPYDRVGFRTRNMPEAIAVNFGIMKAGAIPVPLNPMWAGKEVSFVSNNAEIKALFVSGDERVFPAVNEVKDEIKTAKAMVVMDGEKEGFIPFSEVTAESAKFDPILLKIGTPALILYTSGTTGLPKGCVHFVENVISSVYLVGKHVWKLTPDDVVGGPAPVSFAMGYGNGCLIPYFHGAAASIWPRFSVENFFKYVEEHGITVFSSLPTSYRMILADPKLEEYMNKYDISSLRLFTGGGEALGAETAKRWKEVFGMDIYESLGATEMLHICIANACAPKPVAGSIGFPVPGYIAKIVDPETGKECGADEVGSLYIKGPTGIRYWNHPSRDLSEKQAKSVKNGWNVLGDFVRKDENGYIYFVSRDDDLIKSSGYRIGPDEIEQPLNTHPAVAECAVIGVPDPEGIRGQVVKAIIRLKEGYTPDEKLKEDILAFLEKHIAKYKLPRIIEFTDKPLPRTPTGKLLRRLLKQSEGHHHHHH
MSASGLLVEKSGPLSLIQDFGRFGLAHIGITQGGPVDDYAYSWANHLLGNRVNCSAIEITLGNACFIALQDCHLAICGGDLNASVDGHPIANWSDFSIKKGQKLQFGMAKNGLRAYLAVKGGFNVPEHLGSSSTVLREALGGLEANGNALKAGDVLPFDAHSLPNHKPRIMTFRFKPDYNLPITLRVIEGYQCDDFSVEAKEKFYSGSFAISPDSNRMGYRLEGNTVKPPYDGILSEGIALGAIQIPHDGNPIVLLNDHQTIGGYPKLGCVARIDLPRLAQAKPGQKVRFVKGDRQGLQDVWCQWAQFFGY
MSITEQVDVAIVGSGPAGLAAAIELRRQGVARVCVLERDGEAGGIPRHCAHPPFGLREHGRLLTGPAYAQRNVEQAERAGVDIRLRHSVVALAAAGLLQLATPEGPRSLRATRVLLATGARETPRSARLLGGDRPLGVINTGALQAYLYLQGLKPFERPLIVGTELVSLSAVMSCRRAGIRPVAMLERNARATARWPLSLFPRLCGVPMHFSSELLEIEGRGRVEAARVRLGDGRVERIACDGILLSGRFVPESSLVRLSHLELDPASGGPRIDQFGRCSDPAYFAAGNLLRPIETAGWSFREGRRIAGLLAADLRAELPSAAPGIAIDCSGPLKLCVPQRLLADPTPGLAHLQLRVSEAASGRLRILADGRPVWERALSCLPERRLLVPLAALRLPPDTRRLEVAFLTSGHLEHHHHHH

Soluble on expression in E. coli, soluble:
MGHHHHHHSHMSLDINQIALHQLIKRDEQNLELVLRDSLLEPTTTVVEMVAELHRVYSAKNKAYGLFNEESELAQALRLQRQGEEDFLAFSRAATGRLRDELAKYPFADGGIVLFCHYRYLAVEYLLVTVLNNLSSMRVNENLDINPTHYLDINHADIVARIDLTEWETNPQSTRYLTFLKGRVGRKVADFFMDFLGASEGLNAKAQNRGLLQAVDDFTAEAQLDKAERQNVRQQVYSYCNEQLQAGEEIELESLSKELSGVSEVSFSEFTAEKGYELEESFPADRSTLRQLTKYAGSGGGLTINFDAMLLGERIFWDPATDTLTIKGTPPNLRDQLQRRTSGGK
MAAAVRSVKGLVAVITGGASGLGLSTAKRLVGQGATAVLLDVPNSEGETEAKKLGGNCIFAPANVTSEKEVQAALTLAKEKFGRIDVAVNCAGIAVAIKTYHEKKNQVHTLEDFQRVINVNLIGTFNVIRLVAGVMGQNEPDQGGQRGVIINTASVAAFEGQVGQAAYSASKGGIVGMTLPIARDLAPIGIRVVTIAPGLFATPLLTTLPDTVRNFLASQVPFPSRLGDPAEYAHLVQMVIENPFLNGEVIRLDGAIRMQP
